This is an account of results in paper PMC10397247.

The target in test [1] is T1, 4H906-bN.
T1 chain: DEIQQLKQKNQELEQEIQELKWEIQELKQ
Kind of test: two-hybrid library CCNG1.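 Also: natural log of median RNA to DNA barcode read ratio; higher means stronger binding.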

In test [2] the target is T2, 4H591-bN.
T2 chain: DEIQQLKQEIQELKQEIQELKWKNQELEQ
Kind of test: two-hybrid library CCNG1.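 Also: natural log of median RNA to DNA barcode read ratio; higher means stronger binding.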

The target of test [3] is T3, 4H626-bN.
T3 chain: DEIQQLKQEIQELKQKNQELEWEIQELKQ
The experiment in a line: two-hybrid library CCNG1.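 Also: natural log of median RNA to DNA barcode read ratio; higher means stronger binding.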

Test [4] addresses T4, APC4264-AA.
T4 chain: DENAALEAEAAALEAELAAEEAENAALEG
Kind of test: two-hybrid library CCmax.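 Also: natural log of median RNA to DNA barcode read ratio; higher means stronger binding.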

For test [5], the target named is T5, APC5383-AA.
T5 chain: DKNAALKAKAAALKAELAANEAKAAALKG
The experiment in a line: two-hybrid library CCmax.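 Also: natural log of median RNA to DNA barcode read ratio; higher means stronger binding.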 The following applies: mean of both orientations.

The target in test [6] is T6, APC4436-AA.
T6 chain: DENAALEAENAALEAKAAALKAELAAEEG
Kind of test: two-hybrid library CCmax.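 Also: natural log of median RNA to DNA barcode read ratio; higher means stronger binding.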 Conditions: mean of both orientations.

The target in test [7] is T7, APC9319-AA.
T7 chain: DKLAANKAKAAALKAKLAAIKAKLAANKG
The experiment in a line: two-hybrid library CCmax. The following applies: mean of both orientations.

The target of test [8] is T8, APC9096-AA.
T8 chain: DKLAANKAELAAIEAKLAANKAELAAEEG
Kind of test: two-hybrid library CCmax. The following applies: mean of both orientations.

Test [9] addresses T9, APC8191-AA.
T9 chain: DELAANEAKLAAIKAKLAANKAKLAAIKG
Kind of test: two-hybrid library CCmax.

For test [10], the target named is T10, APC6108-AA.
T10 chain: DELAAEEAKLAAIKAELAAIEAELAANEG
Kind of test: two-hybrid library CCmax. The following applies: mean of both orientations.

Test [11] has as its target T11, APC8910-AA.
T11 chain: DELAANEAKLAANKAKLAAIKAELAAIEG
The experiment in a line: two-hybrid library CCmax. The following applies: mean of both orientations.

The target in test [12] is T12, APC7099-AA.
T12 chain: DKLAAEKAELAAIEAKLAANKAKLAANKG
The experiment in a line: two-hybrid library CCmax. The following applies: mean of both orientations.

The target in test [13] is T13, 4H730-bH.
T13 chain: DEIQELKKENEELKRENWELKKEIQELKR
The experiment in a line: two-hybrid library CCNG1.

The target in test [14] is T14, 4H56-bH.
T14 chain: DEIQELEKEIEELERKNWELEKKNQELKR
The experiment in a line: two-hybrid library CCNG1.

For test [15], the target named is T15, 4H932-bH.
T15 chain: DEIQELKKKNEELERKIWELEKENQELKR
The experiment in a line: two-hybrid library CCNG1.

The target in test [16] is T16, 4H349-bH.
T16 chain: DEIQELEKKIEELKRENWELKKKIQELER
Kind of test: two-hybrid library CCNG1.

For test [17], the target named is T17, 4H949-bH.
T17 chain: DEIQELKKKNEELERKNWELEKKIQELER
The experiment in a line: two-hybrid library CCNG1.

Test [18] concerns the target T18, 4H796-bH.
T18 chain: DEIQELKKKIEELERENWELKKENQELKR
Kind of test: two-hybrid library CCNG1.

The target in test [19] is T19, 4H963-AA.
T19 chain: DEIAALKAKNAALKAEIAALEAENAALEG
The experiment in a line: two-hybrid library CCmax.

In test [20] the target is T20, 4H3381-bH.
T20 chain: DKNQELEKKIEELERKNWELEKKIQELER
Kind of test: two-hybrid library CCNG1.

The target in test [21] is T21, 4H797-bN.
T21 chain: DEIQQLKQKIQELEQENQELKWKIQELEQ
Kind of test: two-hybrid library CCNG1.

The target in test [22] is T22, 4H968-bN.
T22 chain: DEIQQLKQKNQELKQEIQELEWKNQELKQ
Kind of test: two-hybrid library CCNG1.

The target in test [23] is T23, 4H780-bN.
T23 chain: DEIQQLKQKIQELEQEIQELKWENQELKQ
The experiment in a line: two-hybrid library CCNG1.

In test [24] the target is T24, 4H683-bN.
T24 chain: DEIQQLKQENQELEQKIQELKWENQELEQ
The experiment in a line: two-hybrid library CCNG1.

In test [25] the target is T25, 4H918-bN.
T25 chain: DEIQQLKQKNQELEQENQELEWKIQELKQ
Kind of test: two-hybrid library CCNG1.

The target of test [26] is T26, 4H953-bN.
T26 chain: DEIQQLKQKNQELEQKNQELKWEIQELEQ
The experiment in a line: two-hybrid library CCNG1.

Test [27] concerns the target T27, 4H457-bN.
T27 chain: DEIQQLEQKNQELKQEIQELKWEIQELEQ
Kind of test: two-hybrid library CCNG1.

Test [28] deals with T28, 4H855-bN.
T28 chain: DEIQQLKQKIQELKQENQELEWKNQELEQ
The experiment in a line: two-hybrid library CCNG1.

The target in test [29] is T29, 4H754-bN.
T29 chain: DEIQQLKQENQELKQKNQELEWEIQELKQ
The experiment in a line: two-hybrid library CCNG1.

Test [30] concerns the target T30, 4H575-bN.
T30 chain: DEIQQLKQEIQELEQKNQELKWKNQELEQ
The experiment in a line: two-hybrid library CCNG1.

The target of test [31] is T31, 4H454-bN.
T31 chain: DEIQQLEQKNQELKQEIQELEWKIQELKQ
Kind of test: two-hybrid library CCNG1.

In test [32] the target is T32, 4H4001-bN.
T32 chain: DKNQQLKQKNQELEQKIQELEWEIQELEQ
The experiment in a line: two-hybrid library CCNG1.

Test [33] addresses T33, 4H967-bN.
T33 chain: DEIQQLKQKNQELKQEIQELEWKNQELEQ
The experiment in a line: two-hybrid library CCNG1.

The target of test [34] is T34, 4H687-bN.
T34 chain: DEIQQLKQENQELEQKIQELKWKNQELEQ
The experiment in a line: two-hybrid library CCNG1.

Test [35] deals with T35, 4H908-bN.
T35 chain: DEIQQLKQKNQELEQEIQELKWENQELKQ
The experiment in a line: two-hybrid library CCNG1.

Test [36] deals with T36, 4H568-bN.
T36 chain: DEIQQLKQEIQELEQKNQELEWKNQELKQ
The experiment in a line: two-hybrid library CCNG1.

For test [37], the target named is T37, 4H717-bN.
T37 chain: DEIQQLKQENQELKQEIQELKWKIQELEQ
The experiment in a line: two-hybrid library CCNG1.

For test [38], the target named is T38, 4H883-bN.
T38 chain: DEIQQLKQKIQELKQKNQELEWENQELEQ
Kind of test: two-hybrid library CCNG1.

Test [39] concerns the target T39, 4H3855-bN.
T39 chain: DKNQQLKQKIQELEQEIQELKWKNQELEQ
Kind of test: two-hybrid library CCNG1.

For test [40], the target named is T40, 4H72-bN.
T40 chain: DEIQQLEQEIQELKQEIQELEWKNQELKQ
Kind of test: two-hybrid library CCNG1.

The target of test [41] is T41, 4H607-bN.
T41 chain: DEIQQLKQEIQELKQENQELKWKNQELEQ
Kind of test: two-hybrid library CCNG1.

DEIQQLKQEIQELKQEIQELKWKNQELEQ [4H591-bN]: the figures for the interaction score in test [1], in test [2] and in test [3] were -1.13, 1.27 and -0.933, respectively.
For DENAALEAEAAALEAELAAEEAENAALEG [APC4264-AA], the interaction score in test [4] is -1.24; in test [5] it was -1.3; in [6], -2.34; in [7] it was -1.52; in test [8], -1.45; in [9], -1.56. In addition, the figures for the interaction score in test [10], in [11] and in test [12] were -1.5, -1.81 and -1.96, respectively.
DEIQELEKKIEELKRENWELKKKIQELER [4H349-bH]: the interaction score is -0.225 in [13]; 0.452 in test [14]; 0.654 in test [15]; 0.275 in test [16]; -0.023 in test [17]; 0.227 in test [18].
Regarding DEIAALKAKNAALKAEIAALEAENAALEG [4H963-AA], the interaction score in test [19] was -2.11.
Regarding DKNQELEKKIEELERKNWELEKKIQELER [4H3381-bH], the interaction score in [13] was -1.42; in test [20], 1.27; in test [14], -1.78; in test [15] it was -0.263; in test [16], -1.42; in [17] it was 0.43. For the same molecule, the interaction score in test [18] is -1.28.
Turning to DEIQQLEQKNQELKQEIQELKWEIQELEQ [4H457-bN], the interaction score is -1.31 in test [21]; -1.86 in [22]; -1.08 in test [23]; -0.914 in test [24]; -1.24 in [25]; -0.785 in test [26]. Moreover, the interaction score in [27] was -1.6; in test [28], -2.15; in test [29], -0.487; in test [30] it was -0.989.
On to DEIQQLKQEIQELEQKNQELKWKNQELEQ [4H575-bN], for which the interaction score in [21] was -1.51; in [22], -0.976; in test [23] it was -0.38; in test [24], 0.443; in test [25], 0.56; in test [26], 0.476. The results for the interaction score in [28], in [29] and in [30] were 0.475, -2.08 and -0.842, respectively.
Take DKNQQLKQKIQELEQEIQELKWKNQELEQ [4H3855-bN]: the interaction score in test [21] was -0.544; in test [31] it was -0.525; in [32], 0.118; in test [33] it was -0.415; in [25] it was -1.48; in test [34], -1.97. The interaction score is -0.268 in [35]; 0.0333 in test [36]; -0.464 in test [37]; -0.0328 in test [38]; -0.653 in [26]; 0.124 in [39]. The interaction score in test [29] is -0.585; in [40], -0.0369; in [41], -0.914.
Turning to DEIQQLKQEIQELKQKNQELEWEIQELKQ [4H626-bN], the interaction score was -0.523 in [1] and 0.832 in test [3].
